This is an account of results in paper PMC10039853, “Increasing the melting temperature of VHH with the in silico free energy score” (Scientific Reports, 2023).

Numbering of substitutions follows the chain as printed. Names and notes keep the numbering of the source. Where only a bound is given, the exact number is not on record here.

Holding throughout (details): both partners purified
The target in experiment [1] is T1, hen egg lysozyme (Gallus gallus (hen egg white), UniProt P00698).
T1 construct: hen egg lysozyme (HEL), antigen of VHH D3-L11; also in the complex structure PDB 6JB8; also called HEL; antigen lysozyme; source: bought: Sigma-Aldrich, Cat No. L6876 (named for the ELISA)
The experiment is described as follows: SPR; Biacore T200; lysozyme immobilised on Sensor Chip CM5 by amine coupling to 200 RU; VHH injected 300 s, dissociation 600 s; running buffer PBST (PBS, 0.005% Tween 20); duplicate; 1:1 binding model.
T1 sequence (P00698 19-147): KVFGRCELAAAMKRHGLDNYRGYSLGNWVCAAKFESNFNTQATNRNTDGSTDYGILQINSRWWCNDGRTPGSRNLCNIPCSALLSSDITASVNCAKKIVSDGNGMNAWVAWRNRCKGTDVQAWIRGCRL

The target in experiment [2] is T2, hen egg lysozyme (Gallus gallus (hen egg white), UniProt P00698).
T2 construct: hen egg lysozyme (HEL), the antigen of D3-L11; also in PDB 6JB8; The supplier is named for the ELISA only; also called HEL; antigen lysozyme; source: bought: Sigma-Aldrich, Cat No. L6876
Put plainly: SPR; Biacore T200; lysozyme immobilised on Sensor Chip CM5 by amine coupling (200 RU); VHH injected 300 s, dissociation 600 s in PBST (PBS, 0.005% Tween 20); 1:1 binding model; duplicate.
T2 sequence (P00698 19-147): as above

Experiment [3] concerns the target T1, hen egg lysozyme. The experiment is described as follows: ELISA; lysozyme (1 ug/mL) coated on 384-well MaxiSorp plate overnight at 4 °C; serial concentrations of VHH in 5% BlockingOne in TBST, 1 h at room temperature; detected with Penta-His HRP conjugate.

B1: D3-L11 A79W (VHH)
VHH: DVQLVESGGGSVQAGGSLRLSCAASGSTDSIEYMTWFRQAPGKAREGVAALYTHTGNTYYTDSVKGRFTISQDKAKNMWYLRMDSVKSEDTAIYTCGATRKYVPVRFALDQSSYDYWGQGTQVTVSS
notes: as the VHH chain of m2 (D3-L11, PDB 6JB8) with the stated substitution; Second-round mutant; same construct as m2; also called W mutant; source: ExpiCHO, transient transfection, purified from supernatant (His Mag Sepharose excel); not shown: His6 (after a SAG tripeptide linker), C-terminal, kept
For B1, the “fold decrease in affinity (KD) against wild type” value (“fold decrease in affinity (KD)” for short) in experiment [1] was less than 10 fold.

B2: D3-L11 A79N (VHH)
VHH: B1 VHH with W79N
notes: as the VHH chain of Sm1 (D3-L11 wild type, PDB 6JB8) with A79N; SAG tripeptide linker before the C-terminal 6xHis tag; source: ExpiCHO, transient transfection, purified from supernatant (His Mag Sepharose excel); not shown: His6, C-terminal, kept
On to B2, for which the Kd in experiment [2] came out at 8.04 ± 0.07 pM.

B3: D3-L11 A79F (VHH)
VHH: B1 VHH with W79F
notes: as the VHH chain of m2 (D3-L11, PDB 6JB8) with the stated substitution; First-round mutant; same construct as m2; also called F mutant; source: ExpiCHO, transient transfection, purified from supernatant (His Mag Sepharose excel); not shown: His6 (after a SAG tripeptide linker), C-terminal, kept
As to B3, the “fold decrease in affinity (KD)” value in experiment [1] was less than 10 fold.

B4: D3-L11 A79L (VHH)
VHH: B1 VHH with W79L
notes: as the VHH chain of m2 (D3-L11, PDB 6JB8) with the stated substitution; Second-round mutant; same construct as m2; also called L mutant; source: ExpiCHO, transient transfection, purified from supernatant (His Mag Sepharose excel); not shown: His6 (after a SAG tripeptide linker), C-terminal, kept
B4: the “fold decrease in affinity (KD)” value in experiment [1] was less than 10 fold. Also, the “fold decrease in affinity (EC50) against wild type” value in experiment [3] is less than 10 fold.

B5: anti-lysozyme VHH D3-L11, wild type (VHH)
VHH: B1 VHH with W79A
notes: anti-hen egg lysozyme VHH D3-L11, 127 amino acids; A SAG tripeptide linker stands between the VHH and the C-terminal 6xHis tag; also called WT; source: ExpiCHO, transient transfection, purified from supernatant (His Mag Sepharose excel); not shown: His6, C-terminal, kept
Molecule B5 registered a Kd in experiment [2] of 3.17 ± 0.19 pM.

B6: D3-L11 G26I (VHH)
VHH: B1 VHH with G26I, W79A
notes: as the VHH chain of Sm1 (D3-L11 wild type, PDB 6JB8) with G26I; SAG tripeptide linker before the C-terminal 6xHis tag; source: ExpiCHO, transient transfection, purified from supernatant (His Mag Sepharose excel); not shown: His6, C-terminal, kept
In experiment [2], B6 showed a Kd of 25 ± 0.3 pM.

B7: D3-L11 A79Y (VHH)
VHH: B1 VHH with W79Y
notes: as the VHH chain of Sm1 (D3-L11 wild type, PDB 6JB8) with A79Y; SAG tripeptide linker before the C-terminal 6xHis tag; source: ExpiCHO, transient transfection, purified from supernatant (His Mag Sepharose excel); not shown: His6, C-terminal, kept
B7 had a Kd in experiment [2] of 5.57 ± 0.04 pM.

B8: D3-L11 A79E (VHH)
VHH: B1 VHH with W79E
notes: as the VHH chain of m2 (D3-L11, PDB 6JB8) with the stated substitution; Second-round mutant; same construct as m2; Too little protein for SPR; also called E mutant; source: ExpiCHO, transient transfection, purified from supernatant (His Mag Sepharose excel); not shown: His6 (after a SAG tripeptide linker), C-terminal, kept
For the molecule B8, in experiment [3], the binding result is listed as “binds”.

B9: D3-L11 A79I (VHH)
VHH: B1 VHH with W79I
notes: as the VHH chain of Sm1 (D3-L11 wild type, PDB 6JB8) with A79I; SAG tripeptide linker before the C-terminal 6xHis tag; source: ExpiCHO, transient transfection, purified from supernatant (His Mag Sepharose excel); not shown: His6, C-terminal, kept
B9: the Kd in experiment [2] was found to be 4.92 ± 0.12 pM.

B10: D3-L11 A24L (VHH)
VHH: B1 VHH with A24L, W79A
notes: as the VHH chain of Sm1 (D3-L11 wild type, PDB 6JB8) with A24L; SAG tripeptide linker before the C-terminal 6xHis tag; source: ExpiCHO, transient transfection, purified from supernatant (His Mag Sepharose excel); not shown: His6, C-terminal, kept
B10: binding in experiment [2] was put at a Kd of 43.6 ± 1.3 pM.

B11: D3-L11 A79V (VHH)
VHH: B1 VHH with W79V
notes: as the VHH chain of m2 (D3-L11, PDB 6JB8) with the stated substitution; Second-round mutant; same construct as m2; also called V mutant; source: ExpiCHO, transient transfection, purified from supernatant (His Mag Sepharose excel); not shown: His6 (after a SAG tripeptide linker), C-terminal, kept
Turning to B11, in experiment [1], the “fold decrease in affinity (KD)” value was less than 2 fold. Moreover, the “fold decrease in affinity (EC50) against wild type” value in experiment [3] was less than 10 fold.

B12: D3-L11 G97F (VHH)
VHH: B1 VHH with W79A, G97F
notes: as the VHH chain of Sm1 (D3-L11 wild type, PDB 6JB8) with G97F; SAG tripeptide linker before the C-terminal 6xHis tag; source: ExpiCHO, transient transfection, purified from supernatant (His Mag Sepharose excel); not shown: His6, C-terminal, kept
In turn, B12 displayed a Kd in experiment [2] of 6 ± 0.4 pM.

B13: D3-L11 A79H (VHH)
VHH: B1 VHH with W79H
notes: as the VHH chain of Sm1 (D3-L11 wild type, PDB 6JB8) with A79H; SAG tripeptide linker before the C-terminal 6xHis tag; source: ExpiCHO, transient transfection, purified from supernatant (His Mag Sepharose excel); not shown: His6, C-terminal, kept
For the molecule B13, in experiment [2], binding was characterised by a dissociation constant (Kd) of 23.1 pM.

B14: D3-L11 A79F (VHH)
VHH: B1 VHH with W79F
notes: as the VHH chain of Sm1 (D3-L11 wild type, PDB 6JB8) with A79F; SAG tripeptide linker before the C-terminal 6xHis tag; source: ExpiCHO, transient transfection, purified from supernatant (His Mag Sepharose excel); not shown: His6, C-terminal, kept
In experiment [2], B14 yielded a Kd of 12.1 ± 0.2 pM.

B15: D3-L11 A79L (VHH)
VHH: B1 VHH with W79L
notes: as the VHH chain of Sm1 (D3-L11 wild type, PDB 6JB8) with A79L; SAG tripeptide linker before the C-terminal 6xHis tag; source: ExpiCHO, transient transfection, purified from supernatant (His Mag Sepharose excel); not shown: His6, C-terminal, kept
The molecule B15 yielded a Kd in experiment [2] of 6.54 ± 0.03 pM.

B16: D3-L11 A79R (VHH)
VHH: B1 VHH with W79R
notes: as the VHH chain of m2 (D3-L11, PDB 6JB8) with the stated substitution; Second-round mutant; same construct as m2; also called R mutant; source: ExpiCHO, transient transfection, purified from supernatant (His Mag Sepharose excel); not shown: His6 (after a SAG tripeptide linker), C-terminal, kept
B16: the “fold decrease in affinity (KD)” value in experiment [1] is less than 10 fold.

B17: D3-L11 A79H (VHH)
VHH: B1 VHH with W79H
notes: as the VHH chain of m2 (D3-L11, PDB 6JB8) with the stated substitution; Second-round mutant; same construct as m2; also called H mutant; source: ExpiCHO, transient transfection, purified from supernatant (His Mag Sepharose excel); not shown: His6 (after a SAG tripeptide linker), C-terminal, kept
Regarding B17, the “fold decrease in affinity (KD)” value in experiment [1] is less than 10 fold.
